Residue numbers refer to the chain shown, from its start. Blank lines part the entries; values can stand above or below the binder they belong to.
Molecular target: T1, human plasma kallikrein (human, UniProt P03952 20-390; P03952 391-638)
T1 construct: also called pKal; Human pKal
Experiment: ELISA, biotinylated pKal signal over streptavidin background
Text: Abbreviations used: “T/B” is the ELISA signal obtained using of the “target” (biotinylated plasma kallikrein) divided by the ELISA signal of the “background” (streptavidin); both of which were coated on microtiter plates, “nd” is not determined. The symbol “q” refers to the amber suppressible stop codon (TAG), which is translated as glutamine (Q) in strains of E. coli such as the TG1 cells that were used to express the Fab fragments.

T1 sequence (P03952 20-390, chain 1 of 2): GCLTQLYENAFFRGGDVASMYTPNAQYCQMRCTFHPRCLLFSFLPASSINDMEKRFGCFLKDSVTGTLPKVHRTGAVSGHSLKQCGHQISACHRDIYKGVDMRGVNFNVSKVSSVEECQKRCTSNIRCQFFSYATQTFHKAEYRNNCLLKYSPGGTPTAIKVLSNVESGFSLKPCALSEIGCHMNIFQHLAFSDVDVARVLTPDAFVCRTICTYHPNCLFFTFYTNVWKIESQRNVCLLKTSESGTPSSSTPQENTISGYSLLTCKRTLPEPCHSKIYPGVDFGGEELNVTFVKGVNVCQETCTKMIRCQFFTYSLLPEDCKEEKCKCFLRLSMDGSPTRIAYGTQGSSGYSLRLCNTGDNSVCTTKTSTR
T1 sequence (P03952 391-638, chain 2 of 2): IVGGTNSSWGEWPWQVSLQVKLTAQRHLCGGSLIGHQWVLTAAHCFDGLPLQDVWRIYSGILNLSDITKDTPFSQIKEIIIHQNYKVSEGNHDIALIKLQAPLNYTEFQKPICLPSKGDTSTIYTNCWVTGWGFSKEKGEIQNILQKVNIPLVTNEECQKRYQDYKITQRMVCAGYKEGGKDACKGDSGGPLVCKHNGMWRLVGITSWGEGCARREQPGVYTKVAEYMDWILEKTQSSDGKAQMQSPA

- ELISA (T/B): 8.6 T/B
B1: M74-A07 (Fab, V domains shown)
VH: EVQLLESGGGLVQPGGSLRLSCAASGFTFSQYLMMWVRQAPGKGLEWVSSIYPSGGYTSYADSVKGRFTISRDNSKNTLYLQMNSLRAEDTAVYYCARVSTAVADNDYWGQGTLVTVSS
VL: DIQMTQSPSSLSASVRDRVTITCRTSQNINTYLNWYYQAPGRAPKLLIFGVSSLHRGVSSRFSGSGDGTEFTLTISSLQPEDIGTYFCQQSYSSPWTFGQGTKVEIK
notes: HC as printed runs into CH1

- ELISA (T/B): 11.8 T/B
B5: M76-G06 (Fab, V domains shown)
VH: EVQLLESGGGLVQPGGSLRLSCAASGFTFSGYIMHWVRQAPGKGLEWVSWIYPSGGWTEYADSVKGRFTISRDNSKNTLYLQMNSLRAEDTAVYYCARDAPGVGAIDYWGQGTLVTVSS
VL: DIQMTQSPSSLSASVRDRVTITCRASQSISTYLNWYQQKPGEAPKLLVFAASSLQSGVPSRFSGSGSGTDFTLSISSLQPEDFATYYCQQSYSTPHTFGQGAKVEIK
notes: HC as printed runs into CH1

- ELISA (T/B): 6.4 T/B
B7: M76-F02 (Fab, V domains shown)
VH: EVQLLESGGGLVQPGGSLRLSCAASGFTFSLYDMNWVRQAPGKGLEWVSGISPSGGQTMYADSVKGRFTISRDNSKNTLYLQMNSLRAEDTAVYYCARQPMISAFDIWGQGTMVTVSS
VL: DIQMTQSPSSLSASVGDRVTITCRASQTIDNYLHWYQQKPGKAPKVLIHDASSLQSGVPPRFSGSGSGTDFTLTISSLQPEDFATYYCQQSYDTPQYTFGQGTKLEIK
notes: HC as printed runs into CH1

- ELISA (T/B): 40.4 T/B
B9: M29-G08 (Fab, V domains shown)
VH: EVQLLESGGGLVQPGGSLRLSCAASGFTFSYYHMWWVRQAPGKGLEWVSGISPSGGFTFYADSVKGRFTISRDNSKNTLYLQMNSLRAEDTAVYYCARDYYYDSSGYSPLGYWGQGTLVTVSS
VL: DIQMTQSPATLSASPGETVTLSCRASQNIGNDVAWYRQRPGQAPRLLIHHASTRAYGIPARLRGSGSATEFTLTITSLEPEDFAIYYCQQFYDWPAHTFALGTRLEIKR
notes: HC as printed runs into CH1

- ELISA (T/B): 23.6 T/B
B10: M29-D10 (Fab, V domains shown)
VH: EVQLLESGGGLVQPGGSLRLSCAASGFTFSWYPMYWVRQAPGKGLEWVSSIGSSGGPTPYADSVKGRFTISRDNSKNTLYLQMNSLRAEDTAVYYCARWADYGGSLDYWGQGTLVTVSS
VL: DIQMTQSPSSLSASVGDTVSITCRASQSITIYLNWYQHKPGKAPNLLIYGASNLHSGVPSRFSGSGSGTDFTLTISSLQPEDFATYYCQQSYDTPLTFGGGTKVEIK
notes: HC as printed runs into CH1

- ELISA (T/B): 2 T/B
B12: M29-E02 (Fab, V domains shown)
VH: EVQLLESGGGLVQPGGSLRLSCAASGFTFSRYPMMWVRQAPGKGLEWVSVIYPSGGDTFYADSVKGRFTISRDNSKNTLYLQMNSLRAEDTAVYYCASGDDYLWEAAVYWGQGTLVTVSS
VL: QSVLTQPPSVSEAPRQRVTISCSGSSSNIGNNAVSWYQQLPGKAPKLLIYYDDLLPSGVSDRFSGSKSGTSASLAISGLRSEDEADYYCAAWDDSLNGFVFGTGTKVTVL
notes: HC as printed runs into CH1

- ELISA (T/B): 10.3 T/B
B13: M76-G02 (Fab, V domains shown)
VH: EVQLLESGGGLVQPGGSLRLSCAASGFTFSLYAMWWVRQAPGKGLEWVSYISSSGGFTSYADSVKGRFTISRDNSKNTLYLQMNSLRAEDTAVYYCARYRVGVAATDYWGQGTLVTVSS
VL: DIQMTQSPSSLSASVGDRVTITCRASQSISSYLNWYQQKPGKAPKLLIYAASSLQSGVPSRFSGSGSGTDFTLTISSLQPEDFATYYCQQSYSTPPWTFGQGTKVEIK
notes: HC as printed runs into CH1

- ELISA (T/B): 16.4 T/B
B17: M29-G10 (Fab, V domains shown)
VH: EVQLLESGGGLVQPGGSLRLSCAASGFTFSFYKMIWVRQAPGKGLEWVSSISSSGGSTQYADSVKGRFTISRDNSKNTLYLQMNSLRAEDTAVYYCARDRVDLGYLDYWGQGTLVTVSS
VL: DIQMTQSPSSLSSSVGDSATITCRASQSISIYLNWYQQKPGKAPKILIYGASQLESGVPSRFSGSGSGTDFTLTVSGLQPEDFATYWCQQSYNVPYTFGQGTKLEIK
notes: HC as printed runs into CH1

Further lines, the binder ahead of its results:

B2: M28-F07 (Fab, V domains shown)
VH: EVQLLESGGGLVQPGGSLRLSCAASGFTFSDYTMYWVRQAPGKGLEWVSSIVPSGGHTLYADSVKGRFTISRDNSKNTLYLQMNSLRAEDTAVYYCAKDHLSSWYGGFFDYWGQGTLVTVSS
VL: DIQMTQSPSSVSASVGDRVTITCRASQGISSWLAWYQQKPGKAPKLLIYATSGLQSGVPSRFSGSGSGTDFTLTISSLQPEDFATYYCQQAKSFPLTFGGGTRVEIK
notes: HC as printed runs into CH1
- ELISA (T/B): 33 T/B

B3: M27-H10 (Fab, V domains shown)
VH: EVQLLESGGGLVQPGGSLRLSCAASGFTFSAYQMAWVRQAPGKGLEWVSVIYSSGGYTDYADSVKGRFTISRDNSKNTLYLQMNSLRAEDTAVYYCARHNWNDGAFDIWGQGTMVTVSS
VL: B5 VL with R16G, T31N, E42K, L46F, V48I, F49Y, H96Q, A102T, I106M
notes: HC as printed runs into CH1
- ELISA (T/B): 12.4 T/B

B4: M28-F01 (Fab, V domains shown)
VH: B7 VH with L31V, D33L, N35H, Q57Y, M59Q, Q99P, P100G, M101G, I102L, S103D
VL: DIQMTQSPSSLSASVGDRVTITCRASQSINTYLNWYQQKPGKAPKVLIHAASTLESGVPSRFSGSGSGTDFTLTISSLQPEDFATYYCQQSYSTPPTFGQGTKVEIK
notes: HC as printed runs into CH1
- ELISA (T/B): 1.5 T/B

B6: M28-E01 (Fab, V domains shown)
VH: EVQLLESGGGLVQPGGSLRLSCAASGFTFSSYPMGWVRQAPGKGLEWVSRISSSGGMTIYADSVKGRFTISRDNSKNTLYLQMNSLRAEDTAVYYCARDDWNVGMDVWGQGTTVTVSS
VL: DIQMTQSPSSLSASVGDRVTITCRASQSISSYLNWYQQKPGKAPKLLIYAASSLQSGVPSKFSGSGSGTDYTLTISSLQPEDFATYYCQQTYTTPWTFGQGTKVEIK
notes: HC as printed runs into CH1
- ELISA (T/B): 41 T/B

B8: M28-D12 (Fab, V domains shown)
VH: EVQLLESGGGLVQPGGSLRLSCAASGFTFSWYTMHWVRQAPGKGLEWVSVIYPSGGPTSYADSVKGRFTISRDNSKNTLYLQMNSLRAEDTATYYCARDGSGSYLGFDYWGQGTLVTVSS
VL: DIQMTQSPSSLSASVGDRVTITCRASQSIATYLNWYQQKPGRAPKLLIYAASSLQSGVPSRFVGGGSGSGTHFTLTISSLQPEDFATYYCQQSYSTRETFGQGTKVEIK
notes: HC as printed runs into CH1
- ELISA (T/B): 41.6 T/B

B11: M28-E11 (Fab, V domains shown)
VH: EVQLLESGGGLVQPGGSLRLSCAASGFTFSLYDMTWVRQAPGKGLEWVSGISSSGGVTIYADSVKGRFTISRDNSKNTLYLQMNSLRAEDTAVYYCARTYYYDSSGYADAFDIWGQGTMVTVSS
VL: DIQMTQSPSSVSASVGDRVTINCRASQDISNWLAWYQQKPGKAPNLLIYAASSLQTGAPSRFSGSGSGTDFTLTISSLQPEDFGTYVCQQSYSLPWTFGLGTKVEVR
notes: HC as printed runs into CH1
- ELISA (T/B): 29.3 T/B

B14: M29-C07 (Fab, V domains shown)
VH: EVQLLESGGGLVQPGGSLRLSCAASGFTFSGYDMMWVRQAPGKGLEWVSVISSSGGNTAYADSVKGRFTISRDNSKNTLYLQMNSLRAEDTAVYYCARESSGLYYFDYWGQGTLVTVSS
VL: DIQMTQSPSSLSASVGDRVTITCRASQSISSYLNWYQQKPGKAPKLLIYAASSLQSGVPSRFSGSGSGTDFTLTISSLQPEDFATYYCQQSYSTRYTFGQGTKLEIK
notes: HC as printed runs into CH1
- ELISA (T/B): 5.2 T/B

B15: M28-C03 (Fab, V domains shown)
VH: EVQLLESGGGLVQPGGSLRLSCAASGFTFSYYQMGWVRQAPGKGLEWVSSIYPSGGMTDYADSVKGRFTISRDNSKNTLYLQMNSLRAEDTAVYYCTRGSPWGDDAFDIWGQGTMVTVSS
VL: DIQMTQSPSSLSASVGDRVTITCRASQSINFYLNWYQQKPGKAPKLLIYVASSLESGVPSRFSGSASGTEFTLTISSLQPEDFATYYCLQSYSAPYTFGQGTKVEIT
notes: HC as printed runs into CH1
- ELISA (T/B): 2.2 T/B

B16: M28-A01 (Fab, V domains shown)
VH: EVQLLESGGGLVQPGGSLRLSCAASGFTFSWYAMHWVRQAPGKGLEWVSGIYSSGGYTKYADSVKGRFTISRDNSKNTLYLQMNSLRAEDTAVYYCARDLSNGDDVFDIWGQGTMVTVSS
VL: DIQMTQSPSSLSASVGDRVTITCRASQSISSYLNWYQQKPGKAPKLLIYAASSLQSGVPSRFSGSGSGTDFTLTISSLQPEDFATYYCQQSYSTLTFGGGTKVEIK
notes: HC as printed runs into CH1
- ELISA (T/B): 19 T/B

Reference: patent US20260184815A1 (published 2026)
